The assay concerns the target GLS1 (endogenous, both KGA and GAC) (UniProt D3Z7P3). The experiment in a line: IP of endogenous GLS1, blot PDZD8. To be noted: reference: wild type PDZD8; sites T527.

On to PDZD8 (from UniProt Q8NEN9) T527A, for which the “binding against the reference” value is recorded as “weaker”.

The values above are taken from article PMC11442470.
